In patent US20110021367A1 (INDIAN INSTITUTE OF SCIENCE, published 2011):

B2: holo-RslA 1-108 (Zn2+ bound N-terminal cytosolic domain of M. tuberculosis anti-σ^L factor RslA), N-term His-tag (other)
chain: MTMPLRGLGPPDDTGVREVSTGDDHHYAMWDAAYVLGALSAADRREFEAHLAGCPECRGAVTELCGVPALLSQLDRDEVAAISESAPTVVASGLSPELLPSLLAAVHR
modifications: Zn2+ bound in 1:1 stoichiometry (holo, reduced; three free cysteines)
notes: range 1-108; Immobilized on a CM5 chip for SPR; Self-associates into dimers and tetramers in solution; also called Mtb RslA; Rsl1A 1-108; not shown: N-terminal His-tag from pET-Duet1 MCS1

Columns and labels:
[1] = target: B2; test: SPR (BIACORE 2000), RslA immobilized on CM5 chip, σ^L2 as analyte
[2] = target: the molecule itself; test: analytical gel filtration; dynamic light scattering
[3] = target: T1, σ^L 1-177 (Mycobacterium tuberculosis sigma factor L, Rv0735), N-term His-tag (Mycobacterium tuberculosis, UniProt P9WGH5 1-177); test: SPR (BIACORE 2000), RslA immobilized on CM5 chip, σ^L as analyte
T1 construct: range 1-177; also called SigL; Mtb σ^L; not shown: N-terminal His-tag from pET-Duet1 MCS1
T1 sequence: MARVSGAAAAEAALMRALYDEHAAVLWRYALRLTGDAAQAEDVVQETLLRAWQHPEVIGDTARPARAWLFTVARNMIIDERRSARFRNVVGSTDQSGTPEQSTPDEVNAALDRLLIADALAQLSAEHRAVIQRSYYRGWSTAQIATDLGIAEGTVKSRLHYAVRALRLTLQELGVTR

B1: σ^L2 domain of M. tuberculosis σ^L (N-term His-tag σ^L 1-95) (other)
chain: MARVSGAAAAEAALMRALYDEHAAVLWRYALRLTGDAAQAEDVVQETLLRAWQHPEVIGDTARPARAWLFTVARNMIIDERRSARFRNVVGSTDQ
notes: range 1-95; not shown: N-terminal His-tag from pET-Duet1 MCS1
B1 was tested, and the Kd [1] was roughly 2000 nM and the “fold reduction in affinity against intact σ^L” value [1] was roughly 100 fold.

In the case of B2, the binding result [2] is reported as “binds” and the Kd [3] is reported as roughly 20 nM.
